Measurements published in the supplement of paper PMC10724198.
± gives the standard deviation of the averaged measurements.
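Also: PSI is a weighted mean of sequencing reads over stability bins, variants kept only with over 10 reads, mCherry proximal and sfGFP distal, peptide attached via GGGS linker.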

What follows are sequences tested on Saccharomyces cerevisiae (assay: protein stability index of tFT-peptide fusion (C-terminal peptide) (PSI (0-1 scale)); higher = more stable (slower turnover)). Settings: genetic background: doa10 deletion; temperature: 30 C.
Method: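 MPS profiling in S. cerevisiae of the tFT-X12 degron library: putative degron peptides plus stable controls, 12 aa, fused to the C-terminus of a sfGFP-mCherry timer. Cells are FACS-sorted into 8 mCherry/sfGFP bins and deep-sequenced. PSI runs from 0 (unstable) to 1 (stable). Backgrounds are wild type, das1Δ and doa10Δ at 30 °C, and wild type, das1Δ, cdc34-1 and cdc53-1 at 37 °C; 2-3 technical replicates each.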
Sequence APLSPLLPPFLC has a protein stability index of 0.3485 ± 0.0016.
APPPLFLIVLHL gave a protein stability index of 0.324 ± 0.019.
Work on APTMAIIVVHVR yielded a protein stability index of 0.1859 ± 0.0016.
Work on ARKIGKVIPKLG yielded a protein stability index of 0.292 ± 0.0097.
ASLSSSRPPLLP gave a protein stability index of 0.644 ± 0.02.
In the case of ASLVGGVLLVVV, the protein stability index is reported as 0.313 ± 0.017.
Sequence AWPGRLWYFWLA has a protein stability index of 0.189 ± 0.0052.
Sequence AYCGGRNKCTTE has a protein stability index of 0.659 ± 0.014.
AYVAPRRALMCS was tested, and the protein stability index was 0.259 ± 0.011.
CEERVKSRLKQN was tested, and the protein stability index was 0.174 ± 0.012.
CFCLFVFFISSC gave a protein stability index of 0.19 ± 0.019.
For CFCSFQFVRLWV, the protein stability index was 0.455 ± 0.03.
Sequence CFFFPCFSFRFL has a protein stability index of 0.377 ± 0.02.
CFFICGVFVFLM gave a protein stability index of 0.229 ± 0.01.
With CFFILSLMVVVI the protein stability index was 0.0944 ± 0.0056.
CFFLSFNVFRLF gave a protein stability index of 0.107 ± 0.0097.
With CFVISVLFFFVG the protein stability index was 0.284 ± 0.024.
CFVLVVCIPVMV showed a protein stability index of 0.18 ± 0.009.
For CFVQVGGLVKIS, the protein stability index was 0.248 ± 0.02.
In the case of CFVSFLHLLYFS, the protein stability index is reported as 0.506 ± 0.0063.
CGFVCGLCLCRV was tested, and the protein stability index was 0.345 ± 0.023.
Work on CGFVFFVLVVFW yielded a protein stability index of 0.15 ± 0.0054.
CGQIAFLGIAVK showed a protein stability index of 0.289 ± 0.015.
With CGWFVSVGWRLG the protein stability index was 0.228 ± 0.014.
CHFLLHYVFLLS showed a protein stability index of 0.241 ± 0.0065.
In the case of CHPIPLARLAPT, the protein stability index is reported as 0.652 ± 0.026.
With CKKATILRIKSM the protein stability index was 0.17 ± 0.023.
Work on CLCYFLFYFLFV yielded a protein stability index of 0.465 ± 0.023.
CLEHLVYCRLAS showed a protein stability index of 0.0612 ± 0.0023.
For CLHFLTWVRICS, the protein stability index was 0.0895 ± 0.0063.
With CLNPCVRWDGHV the protein stability index was 0.661 ± 0.05.
CMAWLSVLKTLF gave a protein stability index of 0.387 ± 0.037.
With CRQDWMCFVYLS the protein stability index was 0.166 ± 0.0047.
CVFAYSPVALRC was tested, and the protein stability index was 0.412 ± 0.016.
Work on CVFGFACRVLVV yielded a protein stability index of 0.241 ± 0.011.
CYKYTYVKNNMI showed a protein stability index of 0.197 ± 0.013.
CYRRCQAFLVLV gave a protein stability index of 0.134 ± 0.0022.
For DFVFFLVSVRFR, the protein stability index was 0.15 ± 0.013.
DGSFCLLYMTIA was tested, and the protein stability index was 0.293 ± 0.0055.
In the case of DGYLFKGIWFFV, the protein stability index is reported as 0.145 ± 0.0041.
Sequence DKVTLLRRCKQY has a protein stability index of 0.173 ± 0.029.
DLRGLGRFRISH was tested, and the protein stability index was 0.486 ± 0.0072.
DLVGRETRMRLN showed a protein stability index of 0.202 ± 0.01.
DPTLLLYPLSPL showed a protein stability index of 0.667 ± 0.029.
With DVVRWQRVRNYV the protein stability index was 0.2746 ± 0.0021.
With EGGGGRFWVCVG the protein stability index was 0.258 ± 0.0033.
EKHRRYAITKFI was tested, and the protein stability index was 0.155 ± 0.0053.
EKKNQTAYNKTV was tested, and the protein stability index was 0.149 ± 0.021.
In the case of EKTKTKRERKIN, the protein stability index is reported as 0.165 ± 0.0048.
Work on ELNERRKRLVTN yielded a protein stability index of 0.13 ± 0.021.
For ERNERKYKIKIT, the protein stability index was 0.179 ± 0.013.
In the case of ESCFGMAIFCVT, the protein stability index is reported as 0.301 ± 0.012.
In the case of ESCIFLMWLTVL, the protein stability index is reported as 0.0814 ± 0.021.
Sequence ESFIKFALYIVN has a protein stability index of 0.348 ± 0.013.
EVVFHVFLVGLV showed a protein stability index of 0.203 ± 0.012.
FALPPSLLLLSA gave a protein stability index of 0.418 ± 0.0085.
FCCLIGYIWYGW gave a protein stability index of 0.344 ± 0.0071.
For FCFLLLSWAFWV, the protein stability index was 0.0977 ± 0.011.
Work on FCFVRGLLFLFF yielded a protein stability index of 0.386 ± 0.013.
FCIYLCLSTSIT showed a protein stability index of 0.119 ± 0.0062.
